Test results: patent US20170183639

Tested on: YFP-CD2 (CD2 expressed in LLC-PK1 cells as a yellow fluorescent protein fused protein)

Src kinase of LLC-PK1 cells
basal Src activity measured as Y418 phosphorylation: CD2 expression does increase basal Src activity in this manner as compared with a control cell line
